Reference: paper PMC7889650

Molecular target: Nle-substituted 187-bp NCP (Xenopus laevis)
Experiment: cryo-EM structure

stoichiometry N: 1 NSD2 per NCP
Substance: NSD2C-E1099K/T1150A (from UniProt O96028 661-1365) (domain or fragment)
